Measurements as given in the supplement of paper PMC7125110.
± gives the standard error. Variants at the floor of the assay were thinned out.

B1: glmS ribozyme (parent)
chain: AUAAAAGCGCCAGAACUACAGAAAUGUAGUUGACGAGGAGGAGGUUUAUCGAAUUUUCGGCGGAUGCCUCCAAA

Variants of: B1
Test: self-cleavage kobs at 2500 uM GlcN6P; higher = faster cleavage; RNA array
Settings: with glucosamine-6-phosphate
Method in brief: (§1)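 Ribozyme variants carrying barcodes were transcribed in situ on sequenced MiSeq chips by E. coli RNA polymerase and tracked at 37 °C with a hybridised Cy3 probe. They were exposed to 40 μM to 10 mM glucosamine-6-phosphate in HEPES/KCl/Mg(OAc)2 buffer. kobs came from exponential decay fits of normalised per-tile medians, and kcat and KM from weighted Michaelis–Menten fits.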

| Variant | self-cleavage kobs at 2500 uM GlcN6P [s⁻¹] |
| --- | --- |
| G13A U31G A36G | < 1e-05 |
| G13U C19A C70U | 0.000171 ± 2.8e-05 |
| A15U U46C C70G | 8.21e-05 ± 2.2e-05 |
| A15U G41C | 2.7e-05 ± 1.2e-05 |
| C16G G51A G60A G63A C70A | 4.28e-05 ± 1.9e-05 |
| A15G A64C G66A | 0.000144 ± 4.8e-05 |
| A14U A36U C71U | < 1e-05 |
| G29C A52G C67U | 7.8e-05 ± 2.1e-05 |
| G26C U47C G60C | < 1e-05 |
| G29A G35U A53U | < 1e-05 |
| A15C U45C C50G C68U | < 1e-05 |
| G13C A33C G63A A64C | < 1e-05 |
| G29A A36G G38U C50U | < 1e-05 |
| A14G G29A C70G | 0.000126 ± 4e-05 |
| C16U U45G U54G | 0.0032 ± 0.001 |
| G29A A39U G40U | 0.000177 ± 3.8e-05 |
| A12G A48G U55C U57G | < 1e-05 |
| A15G G37C U57G C67U | < 1e-05 |
| A15U G35U C67G | < 1e-05 |
| A14G G44U U56A | 0.000881 ± 0.00031 |
| G26U C67U | 0.000381 ± 0.00017 |

| Variant | self-cleavage kobs at 2500 uM GlcN6P [s⁻¹] |
| --- | --- |
| A12G G32A G60U | < 1e-05 |
| A14U U55G C58G | 5.25e-05 ± 1.2e-05 |
| A12G A52G G60C U65G | < 1e-05 |
| G13A G43A U49C C58A | < 1e-05 |
| A14C A48G C70U | 5.88e-05 ± 2.6e-05 |
| A15U A39G A52G | 0.000162 ± 6.5e-05 |
| G13A U30G U56A | 7.43e-05 ± 2.5e-05 |
| A14C U45G C71A | 4.43e-05 ± 1.3e-05 |
| A14C U45C | 0.000604 ± 0.00025 |
| G13U U47A C50U | < 1e-05 |
| C16U G38A G66A | < 1e-05 |
| A14C G21U G26U A36C | < 1e-05 |
| A14C U31C U54C | 0.0014 ± 0.00039 |
| A15G G32A C58G | 8.81e-05 ± 2.9e-05 |
| G29A G38U G40A A42C | < 1e-05 |
| A12G A53G U69C | 0.000297 ± 0.00012 |
| G29A C50A C67G | 8.63e-05 ± 3.6e-05 |
| G29A U55A C67U | 0.000242 ± 4.9e-05 |
| A14U U57A A64G | 3.21e-05 ± 1.3e-05 |
| A14C A42G G43U C70A | < 1e-05 |
| A15G A52U C70U | 0.000255 ± 6.5e-05 |

| Variant | self-cleavage kobs at 2500 uM GlcN6P [s⁻¹] |
| --- | --- |
| A14G U30A G41C | 0.000337 ± 0.00013 |
| C16U U57A C70G | 5.1e-05 ± 2.1e-05 |
| A14C A15G G62C C67A | < 1e-05 |
| A20C A48G | 0.000134 ± 2.6e-05 |
| G13U C67U C70U | 6.19e-05 ± 2.3e-05 |
| A15C G37U A39G | < 1e-05 |
| G13U A14C G32U C61G | < 1e-05 |
| A12G G41A C50A | < 1e-05 |
| A15G G41U U56G C71G | 8.85e-05 ± 2e-05 |
| G21U A64U | 0.000111 ± 2.9e-05 |
| G13U A42C U69A | < 1e-05 |
| A14C A39U G41U U65G | < 1e-05 |
| C16A A42U A64U | < 1e-05 |
| A14C U31C U65A C70A | 7.72e-05 ± 2.5e-05 |
| C16U G43A C67A U69A | 6.4e-05 ± 2.1e-05 |
| C16G G32U G66A | 0.000109 ± 3.9e-05 |
| G13U A53G C68U | 0.000212 ± 3.7e-05 |
| A14C U55A C68A | 6.41e-05 ± 2.5e-05 |
| A14G A48G C71U | 0.000156 ± 5.8e-05 |
| G29C A53C C67U | 0.000153 ± 4.1e-05 |
| A15G G32C G37U C70A | 0.000633 ± 0.00028 |

| Variant | self-cleavage kobs at 2500 uM GlcN6P [s⁻¹] |
| --- | --- |
| A15G C34G A42U C67G | < 1e-05 |
| A15G G60U G63C | < 1e-05 |
| A15U G44A A48C U56A C70A | < 1e-05 |
| G13C A14G U46A | 5.24e-05 ± 1.3e-05 |
| C16G A36G U69G | 4.76e-05 ± 2.4e-05 |
| G13U A39G U47G C71A | 5.73e-05 ± 1.7e-05 |
| A15U U56G C70U | 0.000554 ± 0.00014 |
| A15G U46A A48U | 5.82e-05 ± 2.3e-05 |
| A14U U30A C71G | 5.1e-05 ± 1.2e-05 |
| A15G U46G G51C U55C G59A G63U | < 1e-05 |
| C16A G41C C70U | 5.88e-05 ± 1.8e-05 |
| A12U A36C G40U U46A C61G | < 1e-05 |
| G13A G40C G60A U65A | < 1e-05 |
| G29A G43C G60C | < 1e-05 |
| A12G U54A U55G | 0.000119 ± 4.5e-05 |
| A14U U30G U31C A53U | 0.00047 ± 0.00013 |
| A12G G44A C70A | < 1e-05 |
| A12U U31G U56A | 0.00599 ± 0.0012 |
| G13U G29U U54G | 8.58e-05 ± 2.4e-05 |

Variants of: B1
Test: self-cleavage kobs at 10000 uM GlcN6P; higher = faster cleavage; RNA array
Settings: with glucosamine-6-phosphate
Method in brief: as §1

| Variant | self-cleavage kobs at 10000 uM GlcN6P [s⁻¹] |
| --- | --- |
| A15U U46C C70G | 3.23e-05 ± 1.5e-05 |
| A15U A39G A52G | 0.000571 ± 0.00013 |
| A14C U45C | 0.000368 ± 6.5e-05 |
| G29A G38U G40A A42C | < 1e-05 |
| A14C A39U G41U U65G | < 1e-05 |
| C16G G32U G66A | 0.000209 ± 5.7e-05 |
